According to paper PMC10399917 (Journal of Molecular Cell Biology, 2023):

Legend:
[1] = biological target: His-TMPRSS2 (transmembrane serine protease 2 with N-terminal 6x histidines) (UniProt O15393); experiment: […]
[2] = biological target: VF-TMPRSS2 (transmembrane serine protease 2 with N-terminal Venus-FLAG) (UniProt O15393); experiment: […]
Chain of VF-TMPRSS2 (transmembrane serine protease 2 with N-terminal Venus-FLAG) (O15393 whole entry): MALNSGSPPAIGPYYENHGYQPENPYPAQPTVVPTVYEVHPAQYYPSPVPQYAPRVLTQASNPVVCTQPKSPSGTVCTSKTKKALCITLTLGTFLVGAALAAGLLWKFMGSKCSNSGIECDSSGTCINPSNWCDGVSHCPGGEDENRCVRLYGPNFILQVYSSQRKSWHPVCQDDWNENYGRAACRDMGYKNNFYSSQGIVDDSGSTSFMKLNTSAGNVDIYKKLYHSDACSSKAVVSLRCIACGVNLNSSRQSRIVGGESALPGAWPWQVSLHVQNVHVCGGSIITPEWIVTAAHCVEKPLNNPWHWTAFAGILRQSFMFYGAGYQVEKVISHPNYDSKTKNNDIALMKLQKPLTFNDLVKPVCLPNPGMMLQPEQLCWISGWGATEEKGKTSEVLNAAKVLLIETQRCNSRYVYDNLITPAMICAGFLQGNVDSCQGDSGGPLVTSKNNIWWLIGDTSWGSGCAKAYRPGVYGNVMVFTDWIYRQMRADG

Chain of His-TMPRSS2 (transmembrane serine protease 2 with N-terminal 6x histidines) (O15393 whole entry): as above

SPIKE-FLAG (SARS-CoV-2 SPIKE glycoprotein with C-terminal FLAG) (from UniProt P0DTC2 14-1273) (natural protein)
S/B ratio (TR-FRET signal-to-background) [1]: > 23

SPIKE-His (SARS-CoV-2 SPIKE glycoprotein with C-terminal 6x histidines) (from UniProt P0DTC2 14-1273) (natural protein)
S/B ratio (TR-FRET signal-to-background) [2]: > 23

SPIKE-VF (SARS-CoV-2 SPIKE glycoprotein with C-terminal Venus-FLAG) (from UniProt P0DTC2 14-1273) (natural protein)
S/B ratio (TR-FRET signal-to-background) [1]: 23
